From the supplement of paper PMC7877785
± gives the uncertainty stated by the source.

Assay: self-splicing fitness, log relative to wild type (ln ratio); higher = more splicing; Tetrahymena group I intron in knt gene, E. coli kanamycin selection, DiMSum; sequences stand for … in CUCUCU…GGAGGGAAAAGUUAUCAGGCAUGCACCUGGUAGCUAGUCUUUAAACCAAUAGAUUGCAUCGGUUUAAAAGGCAAGACCGUCAAAUUGCGGGAAAGGGGUCAACAGCCGUUCAGUACCAAGUCUCAGGGGAAACUUUGAGAUGGCCUUGCAAAGGGUAUGGUAAUAAGCUGACGGACAUGGUCCUAACCACGCAGCCAAGUCCUAAGUCAACAGAUCUUCUGUUGAUAUGGAUGCAGUUCACAGACUAAAUGUCGGUCGGGGAAGAUGUAUUCUUCUCAUAAGAUAUAGUCGGACCUCUCCUUAAUGGGAGCUAGCGGAUGAAGUGAUGCAACACUGGAGCCGCUGGGAACUAAUUUGUAUGCGAAAGUAUAUUGAUUAGUUUUGGAGUACUCGUGGUCG
Outline: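 A randomised library covering all eight P1ex-region intron nucleotides was built with the intron in the knt kanamycin-resistance gene on pET-22b(+) and held in E. coli BL21(DE3). Cells were grown overnight at 37°C or 30°C on LB agar, with or without 25 μg/mL kanamycin, plus 100 μg/mL carbenicillin, 50 μM IPTG and 0.2% rhamnose, and pooled colonies were amplicon-sequenced on an Illumina HiSeq 2500. DiMSum fitness is the error-weighted combination of wild-type-normalised replicate fold changes, kanamycin versus none.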

Sequence | self-splicing fitness (ln) (30 °C) | self-splicing fitness (ln) (37 °C)
CCCAAGCAAUAUUACGACGG | -3.7 ± 0.21 | -1.61 ± 0.16
CCCAAGCAAUAUUACGAGAC | -3.64 ± 0.21 | -1.4 ± 0.17
CCCAAGCAAUAUUACGAUGA | -1.7 ± 0.19 | -2.69 ± 0.24
CCCAAGCAAUAUUACGCAAA | -3.35 ± 0.13 | -2.71 ± 0.14
CCCAAGCAAUAUUACGCCCC |  | -2.52 ± 0.48
CCCAAGCAAUAUUACGCUCA | -3.73 ± 0.27 | -3.23 ± 0.25
CCCAAGCAAUAUUACGCUUU | -3.91 ± 0.2 | -1.85 ± 0.17
CCCAAGCAAUAUUACGGAAG | -2.89 ± 0.16 | -1.48 ± 0.15
CCCAAGCAAUAUUACGGACU | -3.92 ± 0.26 | -2.6 ± 0.18
CCCAAGCAAUAUUACGGCCU | -3.6 ± 0.35 | -3.09 ± 0.37
CCCAAGCAAUAUUACGGCGC |  | -2.73 ± 0.25
CCCAAGCAAUAUUACGGCGU | -3.85 ± 0.19 | -2.4 ± 0.13
CCCAAGCAAUAUUACGGCUA | -4.01 ± 0.42 | -3.19 ± 0.32
CCCAAGCAAUAUUACGGCUU | -4.22 ± 0.22 | -3.15 ± 0.17
CCCAAGCAAUAUUACGGGCC | -3.98 ± 0.22 | -2.08 ± 0.19
CCCAAGCAAUAUUACGGGUC | -3.19 ± 0.13 | -3.14 ± 0.19
CCCAAGCAAUAUUACGGUAG | -2.45 ± 0.086 | -1.77 ± 0.087
CCCAAGCAAUAUUACGGUCC | -2.66 ± 0.15 | -2.65 ± 0.21
CCCAAGCAAUAUUACGUAUC | -4.03 ± 0.14 | -2.52 ± 0.14
CCCAAGCAAUAUUACGUUCG | -2.11 ± 0.14 | -2.49 ± 0.2
CCCCAGCAAUAUUACGAACU | -5.09 ± 0.45 | -2.29 ± 0.2
CCCCAGCAAUAUUACGAAGC | -4.34 ± 0.31 | -3.28 ± 0.3
CCCCAGCAAUAUUACGAAUA |  | -1.41 ± 0.21
CCCCAGCAAUAUUACGACAC | -3.97 ± 0.43 | -2.41 ± 0.36
CCCCAGCAAUAUUACGAGGA | -2.66 ± 0.13 | -1.53 ± 0.11

Sequence | self-splicing fitness (ln) (30 °C) | self-splicing fitness (ln) (37 °C)
CCCCAGCAAUAUUACGAUCC | -3.27 ± 0.27 | -0.776 ± 0.32
CCCCAGCAAUAUUACGAUGA | -3.16 ± 0.16 | -3.01 ± 0.19
CCCCAGCAAUAUUACGAUGC | -3.46 ± 0.16 | -3.15 ± 0.29
CCCCAGCAAUAUUACGCAAA | -3.28 ± 0.14 | -2.44 ± 0.18
CCCCAGCAAUAUUACGCAAC | -3.54 ± 0.14 | -2.48 ± 0.15
CCCCAGCAAUAUUACGCACU | -4.21 ± 0.33 | -2.68 ± 0.22
CCCCAGCAAUAUUACGCGUU | -4.16 ± 0.17 | -2.57 ± 0.19
CCCCAGCAAUAUUACGCUCU | -3.81 ± 0.22 | -2.47 ± 0.26
CCCCAGCAAUAUUACGCUUA | -3.59 ± 0.17 | -2.66 ± 0.17
CCCCAGCAAUAUUACGGACG | -1.67 ± 0.096 | -0.944 ± 0.13
CCCCAGCAAUAUUACGGAGG | -4.83 ± 0.26 | -2.63 ± 0.16
CCCCAGCAAUAUUACGGCAA | -3.17 ± 0.15 | -3.06 ± 0.2
CCCCAGCAAUAUUACGGUGC | -3.88 ± 0.19 | -2.73 ± 0.18
CCCCAGCAAUAUUACGGUUC | -4.25 ± 0.25 | -2.97 ± 0.28
CCCCAGCAAUAUUACGUACG | -3.95 ± 0.26 | -1.89 ± 0.17
CCCCAGCAAUAUUACGUAGU | -3.09 ± 0.078 | -3.07 ± 0.16
CCCCAGCAAUAUUACGUCCC | -2.21 ± 0.36 | 
CCCCAGCAAUAUUACGUUCU | -4.2 ± 0.27 | -3.05 ± 0.17
CCCCAGCAAUAUUACGUUUA | -3.99 ± 0.16 | -2.35 ± 0.15
CCCGAGCAAUAUUACGCAAA | -4.05 ± 0.35 | -0.386 ± 0.21
CCCGAGCAAUAUUACGCAGG | -1.97 ± 0.2 | -1.36 ± 0.22
CCCGAGCAAUAUUACGCAUU | -3.69 ± 0.33 | -2.22 ± 0.3
CCCGAGCAAUAUUACGCCGC | -3.53 ± 0.43 | -1.59 ± 0.47
CCCGAGCAAUAUUACGCGCU | -3.45 ± 0.25 | -2.91 ± 0.29
CCCGAGCAAUAUUACGCGGC | -3.67 ± 0.4 | -1.88 ± 0.29

Sequence | self-splicing fitness (ln) (30 °C) | self-splicing fitness (ln) (37 °C)
CCCGAGCAAUAUUACGCGUG | -3.9 ± 0.2 | -3.2 ± 0.29
CCCGAGCAAUAUUACGGCUA | -3.46 ± 0.29 | -3.2 ± 0.32
CCCGAGCAAUAUUACGGCUC | -4.18 ± 0.34 | -2.21 ± 0.23
CCCGAGCAAUAUUACGGGCA | -3.2 ± 0.23 | -2.66 ± 0.23
CCCGAGCAAUAUUACGGGGG | -3.59 ± 0.16 | -2.89 ± 0.27
CCCGAGCAAUAUUACGGGUC | -4.34 ± 0.28 | -2.12 ± 0.23
CCCGAGCAAUAUUACGGGUU | -3.82 ± 0.16 | -2.89 ± 0.18
CCCGAGCAAUAUUACGUACG | -3.24 ± 0.18 | -2.83 ± 0.24
CCCGAGCAAUAUUACGUAGC | -3.06 ± 0.24 | -2.49 ± 0.33
CCCGAGCAAUAUUACGUAUG | -4.9 ± 0.45 | -2 ± 0.19
CCCGAGCAAUAUUACGUCAA | -3.36 ± 0.2 | -3.09 ± 0.2
CCCGAGCAAUAUUACGUCUU | -3.38 ± 0.18 | -2.16 ± 0.19
CCCGAGCAAUAUUACGUGAA | -3.43 ± 0.37 | -1.87 ± 0.34
CCCGAGCAAUAUUACGUGAU | -4.13 ± 0.28 | -2.22 ± 0.19
CCCGAGCAAUAUUACGUUGA | -4.57 ± 0.32 | -2.78 ± 0.2
CCCGAGCAAUAUUACGUUUU | -4.01 ± 0.33 | -2.01 ± 0.23
CCCUAGCAAUAUUACGAAAG | -3.5 ± 0.26 | 
CCCUAGCAAUAUUACGAAUC | -3.92 ± 0.22 | -2.61 ± 0.18
CCCUAGCAAUAUUACGACAC |  | -2.32 ± 0.28
CCCUAGCAAUAUUACGAGCC | -3.5 ± 0.29 | 
CCCUAGCAAUAUUACGAGGU | -3.87 ± 0.16 | -0.753 ± 0.1
CCCUAGCAAUAUUACGAUUA | -1.88 ± 0.44 | -1.33 ± 0.34
CCCUAGCAAUAUUACGCAGG | -3.06 ± 0.22 | -3.3 ± 0.3
CCCUAGCAAUAUUACGCAGU | -4.87 ± 0.36 | -2.2 ± 0.22
CCCUAGCAAUAUUACGCAUU | -3.74 ± 0.28 | -2.82 ± 0.43

Sequence | self-splicing fitness (ln) (30 °C) | self-splicing fitness (ln) (37 °C)
CCCUAGCAAUAUUACGCGAA | -1.83 ± 0.2 | -2.2 ± 0.23
CCCUAGCAAUAUUACGCGCA | -2.49 ± 0.45 | -1.72 ± 0.32
CCCUAGCAAUAUUACGGAGA | -4.85 ± 0.46 | -2.68 ± 0.2
CCCUAGCAAUAUUACGGAUC | -4.33 ± 0.39 | -1.71 ± 0.25
CCCUAGCAAUAUUACGGGGU | -2.49 ± 0.092 | -2.91 ± 0.12
CCCUAGCAAUAUUACGGUCC | -3.45 ± 0.22 | -1.51 ± 0.28
CCCUAGCAAUAUUACGUCGA | -3.58 ± 0.21 | -2.51 ± 0.19
CCCUAGCAAUAUUACGUCUU | -2.95 ± 0.13 | -2.54 ± 0.25
CCCUAGCAAUAUUACGUGAA | -2.8 ± 0.16 | -2.62 ± 0.2
CCCUAGCAAUAUUACGUGGC | -3.35 ± 0.18 | -2.68 ± 0.16
CCCUAGCAAUAUUACGUGUU | -4.27 ± 0.18 | -3.37 ± 0.17
CCCUAGCAAUAUUACGUUAC | -4.52 ± 0.29 | -2.53 ± 0.27
CCCUAGCAAUAUUACGUUAG | -3.73 ± 0.22 | -2.36 ± 0.18
CCCUAGCAAUAUUACGUUGC | -3.75 ± 0.29 | -1.82 ± 0.18
CCGAAGCAAUAUUACGAACU | -3.08 ± 0.29 | -2.17 ± 0.46
CCGAAGCAAUAUUACGAAUU | -3.28 ± 0.4 | -2.87 ± 0.28
CCGAAGCAAUAUUACGACAA | -3.59 ± 0.4 | -2.52 ± 0.29
CCGAAGCAAUAUUACGACUC | -3.36 ± 0.32 | 
CCGAAGCAAUAUUACGAGUU | -2.77 ± 0.1 | -2.96 ± 0.17
CCGAAGCAAUAUUACGAUCG | -0.383 ± 0.065 | -0.283 ± 0.076
CCGAAGCAAUAUUACGAUGG | -3.47 ± 0.19 | -3.7 ± 0.2
CCGAAGCAAUAUUACGCACC | -2.46 ± 0.19 | -2.25 ± 0.5
